Assay results: article PMC2929599 (Biochemistry, 2009)

Assays:
[1] = biological target: T1, hTHEM2 (human hotdog-fold thioesterase THEM2, thioesterase superfamily member 2) (Homo sapiens, UniProt Q9NPJ3); test: steady-state competitive inhibition, DTNB thioesterase assay; type: biochemical
T1 sequence (Q9NPJ3 1-140): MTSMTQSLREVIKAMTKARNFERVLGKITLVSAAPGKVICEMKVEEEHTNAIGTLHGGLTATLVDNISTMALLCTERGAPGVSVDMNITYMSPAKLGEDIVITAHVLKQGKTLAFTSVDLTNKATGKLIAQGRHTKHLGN

[2] = substrate: CCCCCCCCCCCC(=O)SCCNC(=O)CCNC(=O)[C@H](O)C(C)(C)COP(=O)(O)OP(=O)(O)OC[C@H]1O[C@@H](n2cnc3c(N)ncnc32)[C@H](O)[C@@H]1OP(=O)(O)O; test: steady-state hydrolysis kinetics; type: biochemical, Homo sapiens; details: pH 7.5; 25.0 °C
[3] = substrate: CCCCCC/C=C\CCCCCCCC(=O)SCCNC(=O)CCNC(=O)[C@H](O)C(C)(C)COP(=O)(O)OP(=O)(O)OC[C@H]1O[C@@H](n2cnc3c(N)ncnc32)[C@H](O)[C@@H]1OP(=O)(O)O; test: steady-state hydrolysis kinetics; type: biochemical, Homo sapiens; details: pH 7.5; 25.0 °C
[4] = substrate: CC(C)(COP(=O)(O)OP(=O)(O)OC[C@H]1O[C@@H](n2cnc3c(N)ncnc32)[C@H](O)[C@@H]1OP(=O)(O)O)[C@@H](O)C(=O)NCCC(=O)NCCSC(=O)Cc1ccc(O)c(O)c1; test: steady-state hydrolysis kinetics; type: biochemical, Homo sapiens; details: pH 7.5; 25.0 °C
[5] = substrate: CC(C)(COP(=O)(O)OP(=O)(O)OC[C@H]1O[C@@H](n2cnc3c(N)ncnc32)[C@H](O)[C@@H]1OP(=O)(O)O)[C@@H](O)C(=O)NCCC(=O)NCCSC(=O)Cc1cccc(O)c1; test: steady-state hydrolysis kinetics; type: biochemical, Homo sapiens; details: pH 7.5; 25.0 °C
[6] = substrate: CCCCCCCCCC(=O)SCCNC(=O)CCNC(=O)[C@H](O)C(C)(C)COP(=O)(O)OP(=O)(O)OC[C@H]1O[C@@H](n2cnc3c(N)ncnc32)[C@H](O)[C@@H]1OP(=O)(O)O; test: steady-state hydrolysis kinetics; type: biochemical, Homo sapiens; details: pH 7.5; 25.0 °C
[7] = substrate: CCCCCCCC/C=C\CCCCCCCC(=O)SCCNC(=O)CCNC(=O)[C@H](O)C(C)(C)COP(=O)(O)OP(=O)(O)OC[C@H]1O[C@@H](n2cnc3c(N)ncnc32)[C@H](O)[C@@H]1OP(=O)(O)O; test: steady-state hydrolysis kinetics; type: biochemical, Homo sapiens; details: pH 7.5; 25.0 °C
purified protein = substrate: CCCCCCCCCCCCCC(=O)SCCNC(=O)CCNC(=O)[C@H](O)C(C)(C)COP(=O)(O)OP(=O)(O)OC[C@H]1O[C@@H](n2cnc3c(N)ncnc32)[C@H](O)[C@@H]1OP(=O)(O)O; test: purified protein; details: pH 7.5; 25.0 °C

**Q.** Which Ki [1] does the source give for CCNC(=O)CCNC(=O)[C@H](O)C(C)(C)COP(=O)(O)OP(=O)(O)OC[C@H]1O[C@@H](n2cnc3c(N)ncnc32)[C@H](O)[C@@H]1OP(=O)(O)O [desulfoCoA] here?
**A.** Its Ki is 9 µM.

B1: hTHEM2 (human hotdog-fold thioesterase THEM2, thioesterase superfamily member 2) (Homo sapiens) (protein)
chain: T1 sequence (Q9NPJ3 1-140)
**Q.** Which Km [2] does the source give for B1 here?
**A.** Its Km is 9.9 µM.

**Q.** And the kcat [2]?
**A.** Its kcat is 0.019 ± 0.001 s⁻¹.

**Q.** What about the kcat/Km [2] of the same molecule?
**A.** Its kcat/Km is 1900 M⁻¹ s⁻¹.

**Q.** What about the Km [3] of the same molecule?
**A.** Its Km is 9 µM.

**Q.** What about the kcat [3] of the same molecule?
**A.** The kcat was 0.017 ± 0.001 s⁻¹.

**Q.** And the kcat/Km [3]?
**A.** Its kcat/Km is 1900 M⁻¹ s⁻¹.

**Q.** And the Km [4]?
**A.** The Km was 10 µM.

**Q.** And the kcat [4]?
**A.** Its kcat is 0.19 ± 0.01 s⁻¹.

**Q.** What about the kcat/Km [4] of the same molecule?
**A.** The kcat/Km was 18000 M⁻¹ s⁻¹.

**Q.** What about the Km [5] of the same molecule?
**A.** The Km was 41 µM.

**Q.** What about the kcat [5] of the same molecule?
**A.** The kcat was 1.4 ± 0.1 s⁻¹.

**Q.** What about the kcat/Km [5] of the same molecule?
**A.** The kcat/Km was 35000 M⁻¹ s⁻¹.

**Q.** And the Km [6]?
**A.** Its Km is 4.9 µM.

**Q.** And the kcat [6]?
**A.** The kcat was 0.016 ± 0.001 s⁻¹.

**Q.** And the kcat/Km [6]?
**A.** The kcat/Km was 3300 M⁻¹ s⁻¹.

**Q.** What about the Km [7] of the same molecule?
**A.** The Km was 9 µM.

**Q.** What about the kcat [7] of the same molecule?
**A.** The kcat was 0.011 ± 0.001 s⁻¹.

**Q.** And the kcat/Km [7]?
**A.** Its kcat/Km is 1300 M⁻¹ s⁻¹.

**Q.** What about the Km (purified protein) of the same molecule?
**A.** Its Km is 5 µM.

**Q.** And the kcat (purified protein)?
**A.** The kcat was 0.02 s⁻¹.

**Q.** And the kcat/Km (purified protein)?
**A.** Its kcat/Km is 4000 M⁻¹ s⁻¹.
